Bridge positions count the residues as written; N and C are the ends. Square brackets hold non-standard residues; d marks the D form. Primed or numbered codes have the meaning given here. Lys(N3) = [N-]=[N+]=NCCCC[C@H](N)C(=O)O; NMeQ = CN[C@@H](CCC(N)=O)C(=O)O; R8 = C=CCCCCCC[C@@](C)(N)C(=O)O; dCba = N[C@H](CC1CCC1)C(=O)O; S5 = C=CCCC[C@](C)(N)C(=O)O; NMeA = CN[C@@H](C)C(=O)O; Cba′ = not defined here; Aib = CC(C)(N)C(=O)O; βAla = NCCC(=O)O
Key:
human Mdm2 (1–125) [1] = target: T1, human Mdm2 (1–125) (human); experiment: fluorescence polarisation; competition: unlabeled peptide titrated against the complex of 250 nM Mdm2 (1–125) and 50 nM FAM-labeled 12/1 peptide; apparent Kd from the tracer's Kd of […] nM; PBS pH 7.4, 0.1% Tween 20; triplicate; conditions: both partners purified
T1 construct: Mdm2, human, residues 1-125; the stretch after the TEV site ENLYFQG of the fusion protein; No cleavage of the tags is described, so it is open whether the fusion or cleaved Mdm2 stood in the FP and ITC assays; also called purified recombinant human Mdm2 protein (amino acids 1–125); source: E. coli BL21 (DE3) Rosetta T1R, purified (Ni-NTA, gel filtration)

human Mdm2 (1–125) [2] = target: T1, human Mdm2 (1–125); experiment: as above; conditions: both partners purified; remark: listed apart in the source
human Mdm2 (1–125) [3] = target: T1, human Mdm2 (1–125); experiment: cell-based or functional assay
human Mdm2 (1–125) [4] = target: T1, human Mdm2 (1–125); experiment: cell-based or functional assay; remark: listed apart in the source
human Mdm2 (1–125) [5] = target: T1, human Mdm2 (1–125); experiment: ITC; 100–200 µM peptide titrated into 20 µM Mdm2 (1–125), 40 injections of 1 µL (reverse titration for insoluble peptides); 1× PBS pH 7.2, 3% DMSO, 0.001% Tween-20; duplicates; conditions: both partners purified

T1 sequence (chain, as listed by the source): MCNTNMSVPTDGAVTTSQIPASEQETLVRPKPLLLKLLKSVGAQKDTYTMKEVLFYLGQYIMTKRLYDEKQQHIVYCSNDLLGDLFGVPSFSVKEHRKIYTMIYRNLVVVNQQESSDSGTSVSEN

Binder: Ac-LTF[Aib]EYWQ[dL][Cba′][Aib]SAA-NH2 (reading uncertain) [Linear L9(D-Leu)]
- Kd (human Mdm2 (1–125) [1]): 88 nM

Binder: Ac-LTF[Aib]EYWQL[Cba′][Aib]SAA-NH2 (reading uncertain) [Linear Parent (MP-189)]
- Kd (human Mdm2 (1–125) [1]): 43.1 nM

Binder: Ac-L[dT]F[R8]EYWQL[Cba′][S5]SAA-NH2 (staple 4-11; reading uncertain) [MP-292 T2(D-Thr)]
- Kd (human Mdm2 (1–125) [1]): 136 nM

Binder: Ac-LTF[R8]EYWQL[Cba′][S5]S[dA]A-NH2 (staple 4-11; reading uncertain) [MP-292 A13(D-Ala)]
- Kd (human Mdm2 (1–125) [1]): 17 nM

Binder: Ac-[Lys(N3)][βAla]LTF[R8]EYWAQ[Cba′][S5]S[NMeA]A-NH2 (staple 6-13; reading uncertain) [MP-081 A13(N-methyl L-Ala)]
- Kd (human Mdm2 (1–125) [2]): 10 nM

Binder: Ac-LTF[R8]EYWQL[Cba′][S5][dS]AA-NH2 (staple 4-11; reading uncertain) [MP-292 S12(D-Ser)]
- Kd (human Mdm2 (1–125) [1]): 8.6 nM

Binder: Ac-[Lys(N3)][βAla]LTF[R8]EYWA[NMeQ][Cba′][S5]SAA-NH2 (staple 6-13; reading uncertain) [MP-081 Q9(N-methyl L-Gln)]
- Kd (human Mdm2 (1–125) [2]): 211 nM

Binder: Ac-LTF[R8]EYWQL[Cba′][S5]SA[dA]-NH2 (staple 4-11; reading uncertain) [MP-292 A14(D-Ala)]
- Kd (human Mdm2 (1–125) [1]): 18 nM

Binder: Ac-LTF[R8]EYW[dQ]L[Cba′][S5]SAA-NH2 (staple 4-11; reading uncertain) [MP-292 Q8(D-Gln)]
- Kd (human Mdm2 (1–125) [1]): 22 nM

Binder: Ac-[Lys(N3)][βAla]GTF[R8]EYWAQ[Cba′][S5]SAA-NH2 (staple 6-13; reading uncertain) [MP-081 L1G]
- Kd (human Mdm2 (1–125) [2]): 22.1 nM

Binder: Ac-LTF[R8]E[dY]WQL[Cba′][S5]SAA-NH2 (staple 4-11; reading uncertain) [MP-292 Y6 (D-Tyr)]
- Kd (human Mdm2 (1–125) [1]): 286 nM

Binder: Ac-LTF[R8][dE]YWQL[Cba′][S5]SAA-NH2 (staple 4-11; reading uncertain) [MP-292 E5(D-Glu)]
- Kd (human Mdm2 (1–125) [1]): 32 nM

Binder: Ac-[Lys(N3)][βAla]LTF[R8]EYW[NMeA]Q[Cba′][S5]SAA-NH2 (staple 6-13; reading uncertain) [MP-081 A8(N-methyl L-Ala)]
- Kd (human Mdm2 (1–125) [2]): 671 nM

Binder: Ac-LTF[Aib][dE]YWQL[Cba′][Aib]SAA-NH2 (reading uncertain) [Linear E5(D-Glu)]
- Kd (human Mdm2 (1–125) [1]): 135 nM

Binder: Ac-LT[dF][R8]EYWQL[Cba′][S5]SAA-NH2 (staple 4-11; reading uncertain) [MP-292 F3(D-Phe)]
- Kd (human Mdm2 (1–125) [1]): 6480 nM

Binder: Ac-[dL]TF[Aib]EYWQL[Cba′][Aib]SAA-NH2 (reading uncertain) [Linear L1(D-Leu)]
- Kd (human Mdm2 (1–125) [1]): 277 nM

Binder: Ac-LTF[R8]EYWQL[Cba′][S5]AAA-NH2 (staple 4-11; reading uncertain) [MP-292 S12A]
- Kd (human Mdm2 (1–125) [1]): 20.4 nM

Binder: Ac-LTF[R8]EYWAL[Cba′][S5]SAA-NH2 (staple 4-11; reading uncertain) [MP-292 Q8A]
- Kd (human Mdm2 (1–125) [1]): 26.5 nM

Binder: Ac-LTF[R8]EYWQ[dL][Cba′][S5]SAA-NH2 (staple 4-11; reading uncertain) [MP-292 L9(D-Leu)]
- Kd (human Mdm2 (1–125) [1]): 30 nM

Binder: Ac-[Lys(N3)][βAla]LTF[R8]EYWAP[Cba′][S5]SAA-NH2 (staple 6-13; reading uncertain) [MP-081 Q9P]
- Kd (human Mdm2 (1–125) [2]): 77.1 nM

Binder: Ac-LTF[R8]EYAQL[Cba′][S5]SAA-NH2 (staple 4-11; reading uncertain) [MP-292 W7A]
- EC50, p53 responsive β-lactamase reporter in HCT116 cells (column Cellular) (human Mdm2 (1–125) [3]): 8800 nM
- Kd (human Mdm2 (1–125) [1]): 5090 nM

Binder: Ac-[Lys(N3)][βAla]PTF[R8]EYWAQ[Cba′][S5]SAA-NH2 (staple 6-13; reading uncertain) [MP-081 L1P]
- Kd (human Mdm2 (1–125) [2]): 21.9 nM

Binder: Ac-LTF[R8]EY[dW]QL[Cba′][S5]SAA-NH2 (staple 4-11; reading uncertain) [W6(D-Trp) (MP-384)]
- Kd (human Mdm2 (1–125) [1]): 30 nM

Binder: Ac-LTF[R8]EYWQA[Cba′][S5]SAA-NH2 (staple 4-11; reading uncertain) [MP-292 L9A]
- Kd (human Mdm2 (1–125) [1]): 12 nM

Binder: Ac-[dL]TF[R8]EYWQL[Cba′][S5]SAA-NH2 (staple 4-11; reading uncertain) [MP-292 L1(D-Leu)]
- Kd (human Mdm2 (1–125) [1]): 31 nM

Binder: Ac-LTF[R8]EYWQL[Cba′][S5]SAA-NH2 (staple 4-11; reading uncertain) [MP-292]
- EC50, p53 responsive β-lactamase reporter in HCT116 cells, 2% serum (data not shown) (human Mdm2 (1–125) [4]): 700 nM
- EC50, p53 responsive β-lactamase reporter in HCT116 cells, 10% serum (data not shown) (human Mdm2 (1–125) [4]): 4200 nM
- EC50, p53 responsive β-lactamase reporter in HCT116 cells (column Cellular) (human Mdm2 (1–125) [3]): 540 nM
- stoichiometry N (human Mdm2 (1–125) [5]): 1
- Kd (human Mdm2 (1–125) [1]): 18.6 nM

Binder: Ac-[Lys(N3)][βAla]LTF[R8]EYWAG[Cba′][S5]SAA-NH2 (staple 6-13; reading uncertain) [MP-081 Q9G]
- Kd (human Mdm2 (1–125) [2]): 42 nM

Binder: Ac-[Lys(N3)][βAla]LTF[R8]EYWAQ[Cba′][S5]SAA-NH2 (staple 6-13; reading uncertain) [MP-081]
- Kd (human Mdm2 (1–125) [2]): 19 nM

Binder: Ac-[Lys(N3)][βAla]LTF[R8]GYWAQ[Cba′][S5]SAA-NH2 (staple 6-13; reading uncertain) [MP-081 E5G]
- Kd (human Mdm2 (1–125) [2]): 61.8 nM

Binder: Ac-LTF[R8]EAWQL[Cba′][S5]SAA-NH2 (staple 4-11; reading uncertain) [MP-292 Y6A]
- Kd (human Mdm2 (1–125) [1]): 38.9 nM

Binder: Ac-LTF[R8]EYWQL[dCba][S5]SAA-NH2 (staple 4-11) [MP-292 Cba10(D-Cba)]
- Kd (human Mdm2 (1–125) [1]): 1650 nM

Reference: paper PMC6632053, “Incorporation of Putative Helix-Breaking Amino Acids in the Design of Novel Stapled Peptides: Exploring Biophysical and Cellular Permeability Properties” (Molecules, 2019)
